Results from patent US20240240209A1, “SYNTHESIS OF ENANTIOPURE CIS-A-IRONE FROM A RENEWABLE CARBON SOURCE” (Agency for Science, Technology and Research, priority 2021, published 2024).

Test: In-vivo cis-α-irone production screening of pMT7 and pMT12 mutants
Format: cell-based, Escherichia coli
Conditions: mutations made to pMT12; normalized to pMT12 (=1)
Outline: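 E. coli BL21(DE3) ΔaroA ΔaroB ΔaroC ΔserC strains, with or without ΔmetJ, carried the plasmids and were grown in 1 ml auto-inducing defined medium (glucose/glycerol, 30 mM lactose) at 28 °C for 3 days. Products were extracted into hexane and measured by GC-MS. Production is a semi-quantitative fold change relative to pMT12.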

Molecule	Fold change in in-vivo cis-α-irone production
K94V (protein, Modified from pMT1) MPQEARTPQQQVTADEVGDWYDKFGEVYHLTLGESVHCGLWFPPDAPVPQDMELVTMSSQAQDRFTDYLIETLDPKAGQHLLDIGCGTGRPALVAARQRGIAVTGVAVSKEQIAAANRLAAGHGLTERLTFEVADAMRLPYEDESFDCAWAIESLDHMDRAKALGEAWRVLKPGGDLLVAEEVVTEELTEPETALFETLFALNVPPRLGEFFDIVSGAGFHTLSLKDLSADLAMTMNVFALGVYSRRAEFTERFGAEFVDGLLAGLGSAQETVIRKTRFFMATLRKPAV	0.84
Q11P (protein, Modified from pMT1) MPQEARTPQQPVTADEVGDWYDKFGEVYHLTLGESVHCGLWFPPDAPVPQDMELVTMSSQAQDRFTDYLIETLDPKAGQHLLDIGCGTGRPALKAARQRGIAVTGVAVSKEQIAAANRLAAGHGLTERLTFEVADAMRLPYEDESFDCAWAIESLDHMDRAKALGEAWRVLKPGGDLLVAEEVVTEELTEPETALFETLFALNVPPRLGEFFDIVSGAGFHTLSLKDLSADLAMTMNVFALGVYSRRAEFTERFGAEFVDGLLAGLGSAQETVIRKTRFFMATLRKPAV	0.92
A269R (protein, Modified from pMT1) MPQEARTPQQQVTADEVGDWYDKFGEVYHLTLGESVHCGLWFPPDAPVPQDMELVTMSSQAQDRFTDYLIETLDPKAGQHLLDIGCGTGRPALKAARQRGIAVTGVAVSKEQIAAANRLAAGHGLTERLTFEVADAMRLPYEDESFDCAWAIESLDHMDRAKALGEAWRVLKPGGDLLVAEEVVTEELTEPETALFETLFALNVPPRLGEFFDIVSGAGFHTLSLKDLSADLAMTMNVFALGVYSRRAEFTERFGAEFVDGLLAGLGSRQETVIRKTRFFMATLRKPAV	1.22
A269Y (protein, Modified from pMT1) MPQEARTPQQQVTADEVGDWYDKFGEVYHLTLGESVHCGLWFPPDAPVPQDMELVTMSSQAQDRFTDYLIETLDPKAGQHLLDIGCGTGRPALKAARQRGIAVTGVAVSKEQIAAANRLAAGHGLTERLTFEVADAMRLPYEDESFDCAWAIESLDHMDRAKALGEAWRVLKPGGDLLVAEEVVTEELTEPETALFETLFALNVPPRLGEFFDIVSGAGFHTLSLKDLSADLAMTMNVFALGVYSRRAEFTERFGAEFVDGLLAGLGSYQETVIRKTRFFMATLRKPAV	1.21
H123N (protein, Modified from pMT1) MPQEARTPQQQVTADEVGDWYDKFGEVYHLTLGESVHCGLWFPPDAPVPQDMELVTMSSQAQDRFTDYLIETLDPKAGQHLLDIGCGTGRPALKAARQRGIAVTGVAVSKEQIAAANRLAAGNGLTERLTFEVADAMRLPYEDESFDCAWAIESLDHMDRAKALGEAWRVLKPGGDLLVAEEVVTEELTEPETALFETLFALNVPPRLGEFFDIVSGAGFHTLSLKDLSADLAMTMNVFALGVYSRRAEFTERFGAEFVDGLLAGLGSAQETVIRKTRFFMATLRKPAV	0.91
A95V (protein, Modified from pMT1) MPQEARTPQQQVTADEVGDWYDKFGEVYHLTLGESVHCGLWFPPDAPVPQDMELVTMSSQAQDRFTDYLIETLDPKAGQHLLDIGCGTGRPALKVARQRGIAVTGVAVSKEQIAAANRLAAGHGLTERLTFEVADAMRLPYEDESFDCAWAIESLDHMDRAKALGEAWRVLKPGGDLLVAEEVVTEELTEPETALFETLFALNVPPRLGEFFDIVSGAGFHTLSLKDLSADLAMTMNVFALGVYSRRAEFTERFGAEFVDGLLAGLGSAQETVIRKTRFFMATLRKPAV	0.94
A107S (protein, Modified from pMT1) MPQEARTPQQQVTADEVGDWYDKFGEVYHLTLGESVHCGLWFPPDAPVPQDMELVTMSSQAQDRFTDYLIETLDPKAGQHLLDIGCGTGRPALKAARQRGIAVTGVSVSKEQIAAANRLAAGHGLTERLTFEVADAMRLPYEDESFDCAWAIESLDHMDRAKALGEAWRVLKPGGDLLVAEEVVTEELTEPETALFETLFALNVPPRLGEFFDIVSGAGFHTLSLKDLSADLAMTMNVFALGVYSRRAEFTERFGAEFVDGLLAGLGSAQETVIRKTRFFMATLRKPAV	1.17
Q11L (protein, Modified from pMT1) MPQEARTPQQLVTADEVGDWYDKFGEVYHLTLGESVHCGLWFPPDAPVPQDMELVTMSSQAQDRFTDYLIETLDPKAGQHLLDIGCGTGRPALKAARQRGIAVTGVAVSKEQIAAANRLAAGHGLTERLTFEVADAMRLPYEDESFDCAWAIESLDHMDRAKALGEAWRVLKPGGDLLVAEEVVTEELTEPETALFETLFALNVPPRLGEFFDIVSGAGFHTLSLKDLSADLAMTMNVFALGVYSRRAEFTERFGAEFVDGLLAGLGSAQETVIRKTRFFMATLRKPAV	0.92
T185V (protein, Modified from pMT1) MPQEARTPQQQVTADEVGDWYDKFGEVYHLTLGESVHCGLWFPPDAPVPQDMELVTMSSQAQDRFTDYLIETLDPKAGQHLLDIGCGTGRPALKAARQRGIAVTGVAVSKEQIAAANRLAAGHGLTERLTFEVADAMRLPYEDESFDCAWAIESLDHMDRAKALGEAWRVLKPGGDLLVAEEVVVEELTEPETALFETLFALNVPPRLGEFFDIVSGAGFHTLSLKDLSADLAMTMNVFALGVYSRRAEFTERFGAEFVDGLLAGLGSAQETVIRKTRFFMATLRKPAV	1.14
Q11M (protein, Modified from pMT1) MPQEARTPQQMVTADEVGDWYDKFGEVYHLTLGESVHCGLWFPPDAPVPQDMELVTMSSQAQDRFTDYLIETLDPKAGQHLLDIGCGTGRPALKAARQRGIAVTGVAVSKEQIAAANRLAAGHGLTERLTFEVADAMRLPYEDESFDCAWAIESLDHMDRAKALGEAWRVLKPGGDLLVAEEVVTEELTEPETALFETLFALNVPPRLGEFFDIVSGAGFHTLSLKDLSADLAMTMNVFALGVYSRRAEFTERFGAEFVDGLLAGLGSAQETVIRKTRFFMATLRKPAV	0.90
A95L (protein, Modified from pMT1) MPQEARTPQQQVTADEVGDWYDKFGEVYHLTLGESVHCGLWFPPDAPVPQDMELVTMSSQAQDRFTDYLIETLDPKAGQHLLDIGCGTGRPALKLARQRGIAVTGVAVSKEQIAAANRLAAGHGLTERLTFEVADAMRLPYEDESFDCAWAIESLDHMDRAKALGEAWRVLKPGGDLLVAEEVVTEELTEPETALFETLFALNVPPRLGEFFDIVSGAGFHTLSLKDLSADLAMTMNVFALGVYSRRAEFTERFGAEFVDGLLAGLGSAQETVIRKTRFFMATLRKPAV	0.92
A269G (protein, Modified from pMT1) MPQEARTPQQQVTADEVGDWYDKFGEVYHLTLGESVHCGLWFPPDAPVPQDMELVTMSSQAQDRFTDYLIETLDPKAGQHLLDIGCGTGRPALKAARQRGIAVTGVAVSKEQIAAANRLAAGHGLTERLTFEVADAMRLPYEDESFDCAWAIESLDHMDRAKALGEAWRVLKPGGDLLVAEEVVTEELTEPETALFETLFALNVPPRLGEFFDIVSGAGFHTLSLKDLSADLAMTMNVFALGVYSRRAEFTERFGAEFVDGLLAGLGSGQETVIRKTRFFMATLRKPAV	1.23
A95I (protein, Modified from pMT1) MPQEARTPQQQVTADEVGDWYDKFGEVYHLTLGESVHCGLWFPPDAPVPQDMELVTMSSQAQDRFTDYLIETLDPKAGQHLLDIGCGTGRPALKIARQRGIAVTGVAVSKEQIAAANRLAAGHGLTERLTFEVADAMRLPYEDESFDCAWAIESLDHMDRAKALGEAWRVLKPGGDLLVAEEVVTEELTEPETALFETLFALNVPPRLGEFFDIVSGAGFHTLSLKDLSADLAMTMNVFALGVYSRRAEFTERFGAEFVDGLLAGLGSAQETVIRKTRFFMATLRKPAV	0.98
T185L (protein, Modified from pMT1) MPQEARTPQQQVTADEVGDWYDKFGEVYHLTLGESVHCGLWFPPDAPVPQDMELVTMSSQAQDRFTDYLIETLDPKAGQHLLDIGCGTGRPALKAARQRGIAVTGVAVSKEQIAAANRLAAGHGLTERLTFEVADAMRLPYEDESFDCAWAIESLDHMDRAKALGEAWRVLKPGGDLLVAEEVVLEELTEPETALFETLFALNVPPRLGEFFDIVSGAGFHTLSLKDLSADLAMTMNVFALGVYSRRAEFTERFGAEFVDGLLAGLGSAQETVIRKTRFFMATLRKPAV	1.07
A107G (protein, Modified from pMT1) MPQEARTPQQQVTADEVGDWYDKFGEVYHLTLGESVHCGLWFPPDAPVPQDMELVTMSSQAQDRFTDYLIETLDPKAGQHLLDIGCGTGRPALKAARQRGIAVTGVGVSKEQIAAANRLAAGHGLTERLTFEVADAMRLPYEDESFDCAWAIESLDHMDRAKALGEAWRVLKPGGDLLVAEEVVTEELTEPETALFETLFALNVPPRLGEFFDIVSGAGFHTLSLKDLSADLAMTMNVFALGVYSRRAEFTERFGAEFVDGLLAGLGSAQETVIRKTRFFMATLRKPAV	0.95
Q11V (protein, Modified from pMT1) MPQEARTPQQVVTADEVGDWYDKFGEVYHLTLGESVHCGLWFPPDAPVPQDMELVTMSSQAQDRFTDYLIETLDPKAGQHLLDIGCGTGRPALKAARQRGIAVTGVAVSKEQIAAANRLAAGHGLTERLTFEVADAMRLPYEDESFDCAWAIESLDHMDRAKALGEAWRVLKPGGDLLVAEEVVTEELTEPETALFETLFALNVPPRLGEFFDIVSGAGFHTLSLKDLSADLAMTMNVFALGVYSRRAEFTERFGAEFVDGLLAGLGSAQETVIRKTRFFMATLRKPAV	0.88
